From article PMC3458112, “The VP3 Factor from Viruses of Birnaviridae Family Suppresses RNA Silencing by Binding Both Long and Small RNA Duplexes” (PLoS ONE, 2012)

Key:
Assay in all cases: SEC; analytical gel filtration of affinity-purified 6xHis-tagged VP3s, Superdex-200 5/150 calibrated with catalase, serum albumin, ovoalbumine and chymotrypsinogen A; 20 mM Tris-HCl pH 7.5, 150 mM NaCl, 4°C, 0.5 ml/min
[1] = target: 6xHis-tagged IBDV VP3 Patch2 mutant (R159D, R168D, H198D, R200D) (Infectious bursal disease virus (IBDV))
[2] = target: 6xHis-tagged IBDV VP3 Patch1 mutant (K99D, R102D, K105D, K106D) (Infectious bursal disease virus (IBDV))
[3] = target: the molecule itself

Molecule: 6xHis-tagged IBDV VP3 Patch2 mutant (R159D, R168D, H198D, R200D) (natural protein)
- stoichiometry N [1]: 2

Molecule: 6xHis-tagged IBDV VP3 Patch1 mutant (K99D, R102D, K105D, K106D) (natural protein)
- stoichiometry N [2]: 2

B1: 6xHis-tagged full-length IBDV VP3 (wild type) (natural protein)
chain: ASEFKETPELESAVRAMEAAANVDPLFQSALSVFMWLEENGIVTDMANFALSDPNAHRMRNFLANAPQAGSKSQRAKYGTAGYGVEARGPTPEEAQREKDTRISKKMETMGIYFATPEWVALNGHRGPSPGQVKYWQNKREIPDPNEDYLDYVHAEKSRLASEEQILRAATSIYGAPGQAEPPQAFIDEVAKVYEINHGRGPNQEQMKDLLLTAMEMKHRNPRRALPKPKPKPNAPTQRPPGRLGRWIRTVSDEDLE
notes: VP3 of Infectious bursal disease virus (IBDV), the cut product of the viral polyprotein (pVP2-VP4-VP3); numbers count on: the VP3 polypeptide itself (C-terminal region printed as 222-258), not the polyprotein; also called VP3 WT; wild type IBDV VP3
- stoichiometry N [3]: 2
